Measurements taken from publication PMC9177983, “Mechanism of transcription modulation by the transcription-repair coupling factor”.

Columns and labels:
Mfd [1] = target: T1, Mfd (Escherichia coli, UniProt P30958 1-1148); assay: SPR; 0.5 mM ATPgS; SPR: 30 mM Tris/HCl pH 7.6, 40 mM KCl, 5 mM MgCl2, 0.005% P20, 0.25 mM EDTA, 0.5 mM DTT, 0.5 mM ATPgS, 20 C; smFRET: 20 mM Tris/HCl pH 8.0, 40 mM KCl, 5 mM MgCl2, 1 mM 2-mercaptoethanol; conditions: protein: recombinant, tags: none stated
Mfd(R953A) = Mfd(R953A) (Escherichia coli, UniProt P30958 1-1148, R953A); assay: as above; conditions: protein: recombinant; tags: none stated; label: 5' biotin on AS18; 5' overhang 6 nt (template)
Mfd;RNAP core = Mfd;RNAP core (Escherichia coli;Escherichia coli, UniProt P30958;P0A7Z4;P0A8V2;P0A8T7;P0A800 1-1148;1-329;1-1342;1-1407;2-91, |); assay: SPR; 0.5 mM ATPgS; Mfd titrated onto immobilized RNAP EC; SPR: 30 mM Tris/HCl pH 7.6, 40 mM KCl, 5 mM MgCl2, 0.005% P20, 0.25 mM EDTA, 0.5 mM DTT, 0.5 mM ATPgS, 20 C; smFRET: 20 mM Tris/HCl pH 8.0, 40 mM KCl, 5 mM MgCl2, 1 mM 2-mercaptoethanol; conditions: protein: recombinant;recombinant; tags: none stated;His; copies: 1;2;1;1;1; label: 3' bioTEG on NT; iCy3 on TS; transcription bubble with RNA:DNA hybrid
Mfd [2] = target: T1, Mfd; assay: SPR; ATPgS; SPR: 30 mM Tris/HCl pH 7.6, 40 mM KCl, 5 mM MgCl2, 0.005% P20, 0.25 mM EDTA, 0.5 mM DTT, 0.5 mM ATPgS, 20 C; smFRET: 20 mM Tris/HCl pH 8.0, 40 mM KCl, 5 mM MgCl2, 1 mM 2-mercaptoethanol; conditions: protein: recombinant; tags: none stated; label: 3' bioTEG on NT; 9-nt non-complementary bubble (dT9 in NT); blunt ends

B1: bio_dT40_S18 58-mer ssDNA (ssDNA)
DNA: TTTTTTTTTTTTTTTTTTTTTTTTTTTTTTTTTTTTTTTTGCCTCGCTGCCGTCGCCA
With B1 the Kd (Mfd [1]; label: 5' biotin, single strand) was roughly 4 µM.

B2: dT40_S18:bio_AS18 (dsDNA)
DNA 1: TTTTTTTTTTTTTTTTTTTTTTTTTTTTTTTTTTTTTTTTGCCTCGCTGCCGTCGCCA
DNA 2: TGGCGACGGCAGCGAGGC
Binder B2 has a Kd (Mfd [1]; label: 5' biotin on AS18, 18 bp with 5' overhang 40 nt) of 0.3 ± 0.01 µM.

B3: Cy3_dT40_S18:bio_AS18_Cy5 (dsDNA)
DNA 1: TTTTTTTTTTTTTTTTTTTTTTTTTTTTTTTTTTTTTTTTGCCTCGCTGCCGTCGCCA
DNA 2: TGGCGACGGCAGCGAGGC
With B3 the Kd (Mfd [1]; label: 5' Cy3, 5' biotin and 3' Cy5 on AS18, 18 bp with 5' overhang 40 nt) was 0.39 ± 0.01 µM.

B4: dT6_S18:bio_AS18 (dsDNA)
DNA 1: TTTTTTGCCTCGCTGCCGTCGCCA
DNA 2: TGGCGACGGCAGCGAGGC
In the case of B4, the binding signal (Mfd(R953A)) is reported as 2.3 fold weaker Kd than wild type.

B5: NT_49_bio:TS_49 (dsDNA)
DNA 1: CACTACTGCGACTTACAGACATCGAGAGGGTAATGGCGAATAGCACTGA
DNA 2: TCAGTGCTATTCGCCATTACCCTCTCGATGTCTGTAAGTCGCAGTAGTG
modifications: internal Cy3 in TS_49 after nt 31
B5 showed a Kd (Mfd [1]; label: 3' bioTEG on NT, iCy3 on TS, blunt) of 0.17 ± 0.02 µM.

B6: EC scaffold 49-mer (TS_49:NT_49_bio:RNA_15) (mixed)
DNA 1: TCAGTGCTATTCGCCATTACCCTCTCGATGTCTGTAAGTCGCAGTAGTG
DNA 2: CACTACTGCGACTTACAGACATCGAGAGGGTAATGGCGAATAGCACTGA
RNA: AUAUAUAUCGAGAGG
modifications: internal Cy3 in TS_49 after nt 31
B6 gave a Kd (Mfd;RNAP core) of 0.127 ± 0.006 µM.

B7: 49-mer with 9-nt bubble (NT_49_bio_bubble:TS_49) (dsDNA)
DNA 1: CACTACTGCGACTTACAGACTTTTTTTTTGTAATGGCGAATAGCACTGA
DNA 2: TCAGTGCTATTCGCCATTACCCTCTCGATGTCTGTAAGTCGCAGTAGTG
In the case of B7, the Kd (Mfd [2]) is reported as 0.395 ± 0.007 µM.

B8: dT15_S18:bio_AS18 (dsDNA)
DNA 1: TTTTTTTTTTTTTTTGCCTCGCTGCCGTCGCCA
DNA 2: TGGCGACGGCAGCGAGGC
For B8, the Kd (Mfd [1]; label: 5' biotin on AS18, 5' overhang 15 nt (template)) was 0.22 ± 0.01 µM.

B9: S18:bio_AS18 (dsDNA)
DNA 1: GCCTCGCTGCCGTCGCCA
DNA 2: TGGCGACGGCAGCGAGGC
B9 showed a Kd (Mfd [1]; label: 5' biotin on AS18, blunt) of 0.09 ± 0.004 µM.
